Laboratory results reported in patent US20150344937A1.

Target: murine CD4 (murine) (UniProt P06332)
Assay: quantitative flow cytometry on murine splenocytes, BD QuantiBrite PE microspheres as standard

Sequence of UniProt P06332 (P06332 27-457): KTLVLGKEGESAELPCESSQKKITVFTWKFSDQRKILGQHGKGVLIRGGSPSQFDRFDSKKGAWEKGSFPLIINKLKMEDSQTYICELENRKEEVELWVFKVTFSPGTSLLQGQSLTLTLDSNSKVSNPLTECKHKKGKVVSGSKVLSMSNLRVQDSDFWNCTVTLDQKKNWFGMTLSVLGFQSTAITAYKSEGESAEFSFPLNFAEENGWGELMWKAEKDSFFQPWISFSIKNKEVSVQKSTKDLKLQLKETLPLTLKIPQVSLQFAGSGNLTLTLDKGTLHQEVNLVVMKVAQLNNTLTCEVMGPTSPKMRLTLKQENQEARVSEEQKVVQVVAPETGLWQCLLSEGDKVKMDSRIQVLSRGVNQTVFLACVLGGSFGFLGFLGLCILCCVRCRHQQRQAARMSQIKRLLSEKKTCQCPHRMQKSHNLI

Antibody Binding per Cell (ABC) (CD4 antibody per cell): 29700
Substance: Commercially prepared anti-CD4 (clone GK1.5, phycoerythrin conjugate) (antibody)
